Legend:
[1] = target: T1, NGF (nerve growth factor) (Homo sapiens, UniProt P01138 P01138:122-241); experiment: SPR; more than 40N; high inhibition of receptor binding; settings: tags: R&D Systems, chain copies: 2
[2] = target: T1, NGF (nerve growth factor); experiment: cell_activity; neurite outgrowth inhibition; settings: tags: R&D Systems; chain copies: 2
Experimental: (§1) The cells (2500 cells per well) were cultured for one day in an RPMI-1640 medium containing 2.5% horse serum and 1.25% fetal bovine serum in a 96 well flat-bottom plate coated with collagen type IV. […] Two days later, the cytoplasm and nuclei were stained using Cellomics Neurite Outgrowth Kit (manufactured by Thermo Scientific), and neurite length per cell was measured by Cellomics ArrayScan VTI (manufactured by Thermo Scientific). With the neurite length per cell obtained by the addition of NGF alone as inhibitory activity 0%, and that of the cell obtained by NGF free culture for 2 days as inhibitory activity 100%, the inhibitory activity of the aptamer was calculated from the neurite length per cell obtained by culturing with the addition of NGF and the aptamer in mixture.

[3] = target: T1, NGF (nerve growth factor); experiment: cell_activity; neurite; TF-1 >0.1; settings: tags: R&D Systems; chain copies: 2
[4] = target: T1, NGF (nerve growth factor); experiment: cell_activity; neurite; TF-1 >0.3; settings: tags: R&D Systems; chain copies: 2
[5] = target: T1, NGF (nerve growth factor); experiment: cell_activity; neurite; TF-1 <0.3; settings: tags: R&D Systems; chain copies: 2
[6] = target: T1, NGF (nerve growth factor); experiment: cell_activity; neurite; settings: tags: R&D Systems; chain copies: 2
Experimental: as §1

T1 sequence (P01138 122-241, one chain of several): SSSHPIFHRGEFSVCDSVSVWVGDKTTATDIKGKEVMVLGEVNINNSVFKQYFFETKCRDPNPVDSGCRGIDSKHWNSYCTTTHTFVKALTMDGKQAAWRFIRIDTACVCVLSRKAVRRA

B1: SEQ ID NO: 14 (ssRNA)
RNA: GGGAGAACUUCGACCAGAAGUGCAAUACUUUCGCGGCAUAUGUGCAAACCUUGCCACGACUAUGUGCGCAUACAUGGA
modifications: 2'-F C and U; 2'-OH G; 2'-H (deoxy) A
[1]
  binding result: binds

B2: SEQ ID NO: 11 (ssRNA)
RNA: GGGCACAUCCUGCUGCGUAGUUUCCGUCUCCGUGGCUGUUAUGUGC
modifications: 2'-F C and U; 2'-OH G; 2'-H (deoxy) A
[1]
  binding result: binds

B3: SEQ ID NO: 82(64) (ssRNA)
RNA: GGGUCCUGGAUAAGAGUUUCCGUCUCGUAUCCUGUUACCC
modifications: 2'-F C5,U7,U17,U18,U19,C20,C24,U25,U33,U36; 2'-OH G8,G34; 2'-H A; 2'-OMe all other; 5' PEG40TS2; 3' idT
[2]
  IC50: 0.107 nM

B4: SEQ ID NO: 82(38) (ssRNA)
RNA: GGGUCCUGGAUAAGAGUUUCCGUCUCGUAUCCUGUUACCC
modifications: as 82(25) except dU18
[3]
  IC50: 0.295 nM

B5: SEQ ID NO: 82(61) (ssRNA)
RNA: GGGUCCUGGAUAAGAGUUUCCGUCUCGUAUCCUGUUACCC
modifications: as 82(48) without 5' idT; PS between A13 and G14
[4]
  IC50: 0.031 nM

B6: SEQ ID NO: 82(57) (ssRNA)
RNA: GGGUCCUGGAUAAGAGUUUCCGUCUCGUAUCCUGUUACCC
modifications: as 82(48) without 5' idT; PS between U7 and G8
[4]
  IC50: 0.045 nM

B7: SEQ ID NO: 82(44) (ssRNA)
RNA: GGGUCCUGGAUAAGAGUUUCCGUCUCGUAUCCUGUUACCC
modifications: as 82(25) except 2'-OMe A12
[3]
  IC50: 0.097 nM

B8: SEQ ID NO: 82(30) (ssRNA)
RNA: GGGUCCUGGAUAAGAGUUUCCGUCUCGUAUCCUGUUACCC
modifications: as 82(1) except dC20
[3]
  IC50: 0.244 nM

B9: SEQ ID NO: 160 (ssRNA)
RNA: GGGUCCUGGAUAAGAGTUUCCGUCUCGUAUCCUGUUACCC
modifications: 2'-F C5,U7,U18,U19,C20,C24,U25,U33,U36; dT17; 2'-OH G8,G34; 2'-H A; 2'-OMe all other; idT 5' and 3'
[2]
  IC50: 0.038 nM

B10: SEQ ID NO: 159 (ssRNA)
RNA: GGGUCCUGGAUAAGAGUUUCCGUCUCGUAUCCUGUTACCC
modifications: as 82(1) except dT36
[3]
  IC50: 0.264 nM

B11: SEQ ID NO: 82(31) (ssRNA)
RNA: GGGUCCUGGAUAAGAGUUUCCGUCUCGUAUCCUGUUACCC
modifications: as 82(1) except dC24
[3]
  IC50: 0.276 nM

B12: SEQ ID NO: 161 (ssRNA)
RNA: GGGUCCUGGAUAAGAGUUUCCGUCUCGUAUCCTGUUACCC
modifications: 2'-F C5,U7,U17,U18,U19,C20,C24,U25,U36; dT33; 2'-OH G8,G34; 2'-H A; 2'-OMe all other; idT 5' and 3'
[2]
  IC50: 0.036 nM

B13: SEQ ID NO: 82 (ssRNA)
RNA: GGGUCCUGGAUAAGAGUUUCCGUCUCGUAUCCUGUUACCC
modifications: 2'-F C/U, dA, 2'-OH G
[5]
  IC50: < 0.3 nM

B14: SEQ ID NO: 82(39) (ssRNA)
RNA: GGGUCCUGGAUAAGAGUUUCCGUCUCGUAUCCUGUUACCC
modifications: as 82(25) except dU19
[3]
  IC50: 0.256 nM

B15: SEQ ID NO: 157 (ssRNA)
RNA: GGGUCCUGGAUAAGAGUTUCCGUCUCGUAUCCUGUUACCC
modifications: as 82(1) except dT18
[3]
  IC50: 0.299 nM

B16: SEQ ID NO: 82(62) (ssRNA)
RNA: GGGUCCUGGAUAAGAGUUUCCGUCUCGUAUCCUGUUACCC
modifications: as 82(48) without 5' idT; PS between U33 and G34
[4]
  IC50: 0.039 nM

B17: SEQ ID NO: 76 (ssRNA)
RNA: GGGUCCUGAUUAAGAGUUUCCGUCUCGUAAUCUGUUACCC
modifications: 2'-F C/U, dA, 2'-OH G
[5]
  IC50: < 0.3 nM

B18: SEQ ID NO: 82(56) (ssRNA)
RNA: GGGUCCUGGAUAAGAGUUUCCGUCUCGUAUCCUGUUACCC
modifications: 2'-F all C and U; 2'-OMe G1-3,G9,G14,G16,G22,G27; 2'-OH G8,G34; 2'-H A; 5' PEG40GS2; 3' idT
[2]
  IC50: 0.067 nM

B19: SEQ ID NO: 80 (ssRNA)
RNA: GGGUCCUGGCUAAGAGUUUCCGUCUCGUAGUCUGUUACCC
modifications: 2'-F C/U, dA, 2'-OH G
[5]
  IC50: < 0.3 nM

B20: SEQ ID NO: 82(59) (ssRNA)
RNA: GGGUCCUGGAUAAGAGUUUCCGUCUCGUAUCCUGUUACCC
modifications: as 82(48) without 5' idT; PS between U11 and A12
[4]
  IC50: 0.034 nM

B21: SEQ ID NO: 82(43) (ssRNA)
RNA: GGGUCCUGGAUAAGAGUUUCCGUCUCGUAUCCUGUUACCC
modifications: as 82(25) except 2'-OMe A13
[3]
  IC50: 0.088 nM

B22: SEQ ID NO: 82(58) (ssRNA)
RNA: GGGUCCUGGAUAAGAGUUUCCGUCUCGUAUCCUGUUACCC
modifications: as 82(48) without 5' idT; PS between G8 and G9
[4]
  IC50: 0.072 nM

B23: SEQ ID NO: 111(1) (ssRNA)
RNA: GGGUCCUGUCUAAGAGUUUCCGUCUCGUAGACUGUUACCC
modifications: 2'-OMe except 2'-F C5,U7,U17-19,C20,C24,U25,U33,U36, 2'-OH G8,G34, dA12,dA13; 3' idT
[4]
  IC50: 0.06 nM

B24: SEQ ID NO: 77 (ssRNA)
RNA: GGGUCCUGACUAAGAGUUUCCGUCUCGUAGUCUGUUACCC
modifications: 2'-F C/U, dA, 2'-OH G
[5]
  IC50: < 0.3 nM

B25: SEQ ID NO: 168 (ssRNA)
RNA: GGGUCCUGGAUAAGAGTUUCCGUCUCGUAUCCTGUUACCC
modifications: as 82(48) except dU7,dT17,dT33,dU36
[3]
  IC50: 0.261 nM

B26: SEQ ID NO: 78 (ssRNA)
RNA: GGGUCCUGGCCAAGAGUUUCCGUCUCGUGGUCUGUUACCC
modifications: 2'-F C/U, dA, 2'-OH G
[5]
  IC50: < 0.3 nM

B27: SEQ ID NO: 82(1) (ssRNA)
RNA: GGGUCCUGGAUAAGAGUUUCCGUCUCGUAUCCUGUUACCC
modifications: 2'-F all C and U; 2'-OMe G1-3,G9,G14,G16,G22,G27; 2'-OH G8,G34; 2'-H A; idT 5' and 3'
[2]
  IC50: 0.7 nM

B28: SEQ ID NO: 79 (ssRNA)
RNA: GGGUCCUGGUUAAGAGUUUCCGUCUCGUAACCUGUUACCC
modifications: 2'-F C/U, dA, 2'-OH G
[5]
  IC50: < 0.3 nM

B29: SEQ ID NO: 9 (ssRNA)
RNA: GGGAGAACUUCGACCAGAAGUUGGCACAUCCUGCUGCGUAGUUUCCGUCUCCGUGGCUGUUAUGUGCGCAUAC
modifications: 2'-F C and U; 2'-OH G; 2'-H (deoxy) A
[1]
  binding result: binds

B30: SEQ ID NO: 15 (ssRNA)
RNA: GGGAGAACUUCGACCAGAAGUGCAAUACUUUCGCGGCAUAUGUGCAAACCUUGCCACGACUAUGUGCGCAUAC
modifications: 2'-F C and U; 2'-OH G; 2'-H (deoxy) A
[1]
  binding result: binds

B31: SEQ ID NO: 89(5) (ssRNA)
RNA: GGGUCCUGUGGAAGAGUUUCCGUCUCGUCCACUGUUACCC
modifications: as 89(4) plus 2'-OMe U4,A15,A31,A37; no 5' idT
[4]
  IC50: 0.079 nM

B32: SEQ ID NO: 10 (ssRNA)
RNA: GGGAGAACUUCGACCAGAAGUUGGCACAUCCUGCUGCGUAGUUUCCGUCUCCGUGGCUGUUAUGUGCG
modifications: 2'-F C and U; 2'-OH G; 2'-H (deoxy) A
[1]
  binding result: binds

B33: SEQ ID NO: 12 (ssRNA)
RNA: GGGUCCUGCUGCGUAGUUUCCGUCUCCGUGGCUGUUACCC
modifications: 2'-F C and U; 2'-OH G; 2'-H (deoxy) A
[1]; stem 1 - internal loop 1 - stem 2 - loop 2 (consensus secondary structure 1)
  binding result: binds

B34: SEQ ID NO: 152 (ssRNA)
RNA: GGGUCCUGCUGCGUAGUUUCCGUCUGCGUGGCUGUUACCC
modifications: 2'-OMe G (G8,G34 2'-OH), dA, 2'-F C/U; 5',3' idT
[6]
  IC50: ≤ 1 nM

B35: SEQ ID NO: 153 (ssRNA)
RNA: GGGUCCUGCUGCGUAGUUUCCGUCUGCGUGGCUGUUACCC
modifications: 2'-OMe G (G8,G34 2'-OH), dA, 2'-F C/U; 5' PEG40GS2, 3' idT
[6]
  IC50: ≤ 1 nM

B36: SEQ ID NO: 71(1) (ssRNA)
RNA: GGGUCCUGCUGCAUAGUUUCCGUCUGUGUGGCUGUUACCC
modifications: 2'-OMe G (G8,G34 2'-OH), dA, 2'-F C/U; 5',3' idT
[6]
  IC50: ≤ 1 nM

B37: SEQ ID NO: 74(1) (ssRNA)
RNA: GGGUCCUGCUGCAGAGUUUCCGUCUCGGUGGCUGUUACCC
modifications: 2'-OMe G (G8,G34 2'-OH), dA, 2'-F C/U; 5',3' idT
[6]
  IC50: ≤ 1 nM

B38: SEQ ID NO: 155 (ssRNA)
RNA: GGGUCCUGCUGCGCAGUUUCCGUCUACGUGGCUGUUACCC
modifications: 2'-OMe G (G8,G34 2'-OH), dA, 2'-F C/U; 5',3' idT
[6]
  IC50: ≤ 1 nM

B39: SEQ ID NO: 154 (ssRNA)
RNA: GGGUCCUGCUGCGUAGUUUCCGUCUGCGUGGCUGUUACCC
modifications: 2'-OMe G (G8,G34 2'-OH), dA, 2'-F C/U; 5' idT, 3' PEG40GS2
[6]
  IC50: ≤ 1 nM

B40: SEQ ID NO: 68(1) (ssRNA)
RNA: GGGUCCUGAUGCGUAGUUUCCGUCUGCGUGUCUGUUACCC
modifications: 2'-OMe G (G8,G34 2'-OH), dA, 2'-F C/U; 5',3' idT
[6]
  IC50: ≤ 1 nM

B41: SEQ ID NO: 151 (ssRNA)
RNA: GGGUCCUGCUGCGUAGUUUCCGUCUGCGUGGCUGUUACCC
modifications: 2'-OMe G (G8,G26,G34 2'-OH), dA, 2'-F C/U; 5',3' idT
[6]
  IC50: ≤ 1 nM

B42: SEQ ID NO: 84 (ssRNA)
RNA: GGGUCCUGUCGCUAAGUUUCCGUCUUUGCGGCUGUUACCC
modifications: 2'-F C and U; 2'-OH G; 2'-H (deoxy) A
[2]
  IC50: 0.793 nM

B43: SEQ ID NO: 38(1) (ssRNA)
RNA: GGGUCCUGCUGCGUAGUUUCCGUCUUCGCGGCUGUUACCC
modifications: 2'-OMe G (G8,G34 2'-OH), dA, 2'-F C/U; 5',3' idT
[6]
  IC50: ≤ 1 nM

B44: SEQ ID NO: 66(1) (ssRNA)
RNA: GGGUCCUGCUGCAUAGUUUCCGUCUUUGUGGCUGUUACCC
modifications: 2'-OMe G (G8,G34 2'-OH), dA, 2'-F C/U; 5',3' idT
[6]
  IC50: ≤ 1 nM

B45: SEQ ID NO: 13 (ssRNA)
RNA: GGGGUCCUGCUGCGUAGUUUCCGUCUCCGUGGCUGUUACCCC
modifications: 2'-F C and U; 2'-OH G; 2'-H (deoxy) A
[1]
  binding result: binds

B46: SEQ ID NO: 16 (ssRNA)
RNA: CGACCAGAAGUGCAAUACUUUCGCGGCAUAUGUGCAAACCUUGCCACGACUAUGUGCGCAUAC
modifications: 2'-F C and U; 2'-OH G; 2'-H (deoxy) A
[1]
  binding result: binds

Source: patent publication US20140235701, “NGF APTAMER AND APPLICATION THEREOF” (RIBOMIC INC., published 2014)
